Article PMC10012886
Values joined by “and” are separate entries in the source; they are usually repeats but may differ in a detail not shown here. Identical values can stand only once. Blank lines part the entries; values can stand above or below the substance they belong to.

What was measured:
[1] = target: Cadonilimab (hG1WT); experiment: BLI
[2] = target: human PD-1 and CTLA-4 mixture (mol/mol: 1/1) immobilized on AMC sensors (human); experiment: BLI
[3] = target: fusion protein of human Fc with human PD-1 extracellular domain (PD1-hFc) (human) (UniProt Q15116); experiment: ELISA
[4] = target: fusion protein of mouse Fc with human PD-1 extracellular domain (PD1-mFc) (Homo sapiens (Human).) (UniProt Q15116); experiment: ELISA
[5] = target: human PD-1 on 293 T-PD1 cells (human) (UniProt Q15116); experiment: flow cytometry on cells
[6] = target: human CTLA-4 on 293 T-CTLA4 cells (human) (UniProt P16410); experiment: flow cytometry on cells
[7] = target: FcγRIIIa_F158 (FcγRIIIa 158 F alleles) (UniProt P08637); experiment: BLI
[8] = target: FcγRIa (UniProt P12314); experiment: BLI
[9] = target: FcγRIIIa_V158 (FcγRIIIa 158 V alleles); experiment: BLI

Chain of UniProt P12314 (P12314 16-374): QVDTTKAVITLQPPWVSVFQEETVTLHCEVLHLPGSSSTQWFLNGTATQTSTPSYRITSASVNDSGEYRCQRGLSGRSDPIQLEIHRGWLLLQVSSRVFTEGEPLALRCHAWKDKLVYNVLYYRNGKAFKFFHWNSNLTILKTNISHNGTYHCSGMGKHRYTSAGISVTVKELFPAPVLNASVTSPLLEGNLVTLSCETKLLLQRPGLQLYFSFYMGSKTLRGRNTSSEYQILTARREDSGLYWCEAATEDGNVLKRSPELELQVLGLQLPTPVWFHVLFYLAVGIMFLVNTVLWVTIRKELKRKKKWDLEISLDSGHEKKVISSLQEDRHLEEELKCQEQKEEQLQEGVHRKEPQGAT
Chain of UniProt P08637 (P08637 17-254): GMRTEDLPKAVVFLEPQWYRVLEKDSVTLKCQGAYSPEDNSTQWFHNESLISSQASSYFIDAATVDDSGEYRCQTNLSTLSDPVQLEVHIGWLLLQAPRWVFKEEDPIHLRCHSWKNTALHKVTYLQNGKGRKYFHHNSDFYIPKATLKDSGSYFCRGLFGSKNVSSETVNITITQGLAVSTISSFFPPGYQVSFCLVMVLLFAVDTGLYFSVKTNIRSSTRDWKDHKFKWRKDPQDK
Chain of UniProt P16410 (P16410 36-223): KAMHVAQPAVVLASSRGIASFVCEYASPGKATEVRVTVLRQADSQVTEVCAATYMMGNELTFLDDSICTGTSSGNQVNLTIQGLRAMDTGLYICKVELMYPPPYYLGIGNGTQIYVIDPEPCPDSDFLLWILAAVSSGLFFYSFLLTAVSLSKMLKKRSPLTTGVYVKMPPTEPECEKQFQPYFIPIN

- Kd [1]: 2.53 nM
- koff [1]: 0.00517 s⁻¹
- kon [1]: 2.05e+06 M⁻¹ s⁻¹
Substance: C1q (complex)

- fold higher binding avidity than with low-density PD-1 [2]: 10 fold
- EC50 [3]: 0.792 nM and 1.43 nM
- EC50 [4]: 0.051 nM
- EC50 [5]: 1.81 nM and 2.62 nM
- EC50 [6]: 3.93 nM and 3.09 nM
Substance: Cadonilimab (bispecific antibody)

- Kd [7]: 221 nM
- koff [7]: 0.0247 s⁻¹
- kon [7]: 112000 M⁻¹ s⁻¹
- Kd [8]: 5.92 nM
- koff [8]: 0.00181 s⁻¹
- kon [8]: 306000 M⁻¹ s⁻¹
- Kd [9]: 177 nM
- koff [9]: 0.0214 s⁻¹
- kon [9]: 121000 M⁻¹ s⁻¹
Substance: Cadonilimab (hG1WT) (bispecific antibody)
